“Also recorded” adds a separate entry of the source.
How the values were obtained:
Format in all cases: cell-based
p53 = assay: Immunoblotting of p53 and phosphorylated p53 in MM cells; details: MM.1S cells
Method: (§1) MM cells were harvested and lysed using RIPA-lysis buffer (Boston Bioproducts, Ashland, Mass.) containing 5 mM EDTA, 5 mM NaF, 2 mM Na3VO4, 1 mM PMSF, 5 μg/ml leupeptin, and 5 μg/ml aprotinin. Nuclear proteins were extracted using “Nuclear Extraction Kit” (Affimetrix). After the determination of protein concentration using DC protein assay (Bio-Rad, Hercules, Calif.), β-mercaptoethanol (-ME) was added to the whole-cell lysates to a 2% final concentration. The whole cell lysates or nuclear extracts were subjected to SDS-PAGE, transferred to nitrocellulose membranes (Bio-Rad, Hercules, Calif.) or polyvinylidene fluoride membranes (Millipore, Billerica, Mass.), and immunoblotted with indicated Abs. Silver staining was carried out using “SilverQuest Staining Kit®” (Invitrogen), according to manufacturer's protocol.

TP53RK, CRBN = assay: TP53RK and CRBN expression in MM cells (immunoblotting, qPCR)
Method: as §1
(§2) RNA was extracted using Trizol (Invitrogen) and quantified by a Nanodrop spectrophotometer (Labtech). Specifically, 5×10^6 cells were pelleted, washed with cold PBS, and resuspended in 1 mL Trizol. They were then incubated with 1-Bromo-3-chloropropane (Sigma), washed first with Isopropyl alcohol and then with 75% Ethanol, and resuspended in Nuclease Free-water (Invitrogen). After quantification, 2000 ng of RNA was used to synthesize cDNA via the Superscript II First strand synthesis Kit (Invitrogen), according to the manufacturer's instructions. To evaluate the expression levels of TP53RK, BCL2L11, MYC, Bim, E2F1, TP53, IKZF1, IKZF3, RRM1, p18CDKN2C, PSMB5, PSMB7, PSMA3 and GAPDH, quantitative real time PCR (QRT-PCR) was performed using SYBR GREEN PCR Master Mix (Applied Biosystem), after optimization of the primer conditions. cDNAs were diluted 1:100 or 1:1000 and amplified in a 20 μL reaction. Primers were used at 200 nM or 400 nM concentration. Thermal cycling conditions were: 10 minutes at 95° C., 40 cycles at 95° C. for 15 seconds, followed by 1 minute at 60° C. Real-time quantitative PCR was performed on ABI Prism 7300 Sequence Detection System (Applied Biosystems). Data were analyzed using the delta delta Ct method. GAPDH was used as an invariant control.
pLKO.1-based shRNA vectors were obtained from the RNAi Consortium (Broad Institute). […] After 24 h of infection, cells expressing shRNA were selected with puromycin dihydrochloride (Sigma-Aldrich) at 1-2 μg/ml for 48 h, and then examined for proliferation and/or subjected to immunoblotting analysis. For siRNA transfection, scrambled, TP53RK, CRBN, p53, c-Myc and RRM1 siRNAs were purchased from Thermo Scientific (Lafayette, Colo.). siRNA transfection was carried out by Amaxa electroporation system using “Cell Line Nucleofector® Kit V or C” solution (Lonza, Koln, Germany).

MM cells = assay: Growth inhibition assay (MTT) / viable cell count (Trypan-blue)
Method: Cell growth was assessed by measuring 3-(4,5-dimethylthiazol-2-yl)-2,5-diphenyl […] bromide (MTT, Chemicon International, Temecula, Calif.) dye absorbance. Cells were pulsed with 10 μl of 5 mg/ml MTT to each well for the last 4 h of 48 h and/or 72 h cultures, followed by 100 μl isopropanol containing 0.04N HCl. Absorbance was measured at 570/630 nm using a spectrophotometer (Molecular Devices Corp., Sunnyvale Calif.).

proteasome = assay: Proteasome pathway (GSEA, qPCR) and chymotrypsin-like proteasome activity assay; details: H929 cells
Method: as §2
Expression data for plasma cells from healthy donors, monoclonal gammopathy of undetermined significance (MGUS), and smoldering myeloma (SMM) were derived from GSE5900 dataset, while expression data from normal plasma cells and 65 MM patients were obtained from GSE4452 dataset, using expression profiling on Affymetrix GeneChip (t test, unpaired, equal variance). […] Data were then normalized and analyzed using D-chip software, seeking statistically significant differences among groups or in p53-target gene expression. Statistical significance was determined by Student t test. The minimal level of significance was P<0.05. […] Gene set enrichment analysis (GSEA) was performed as previously described (2) (GSEA v2.0 at http://www.broad.mit.edu/gsea) using gene set as permutation type, as well as 1,000 permutations and signal to noise as metrics for ranking genes.
Proteasome activity was measured by using Proteasome-Glo™ chymotrypsin-like cell-based assay (Promega, Madison, Wis.) according to manufacturer's protocol.

c-Myc, IKZF1/3 = assay: c-Myc and IKZF1/3 expression (immunoblotting, qPCR); details: MM.1S cells and H929 cells
Method: MM cells were harvested and lysed using RIPA-lysis buffer (Boston Bioproducts, Ashland, Mass.) containing 5 mM EDTA, 5 mM NaF, 2 mM Na3VO4, 1 mM PMSF, 5 μg/ml leupeptin, and 5 μg/ml aprotinin. Nuclear proteins were extracted using “Nuclear Extraction Kit” (Affimetrix). After the determination of protein concentration using DC protein assay (Bio-Rad, Hercules, Calif.), β-mercaptoethanol (-ME) was added to the whole-cell lysates to a 2% final concentration. […]
RNA was extracted using Trizol (Invitrogen) and quantified by a Nanodrop spectrophotometer (Labtech). […] After quantification, 2000 ng of RNA was used to synthesize cDNA via the Superscript II First strand synthesis Kit (Invitrogen), according to the manufacturer's instructions. To evaluate the expression levels of TP53RK, BCL2L11, MYC, Bim, E2F1, TP53, IKZF1, IKZF3, RRM1, p18CDKN2C, PSMB5, PSMB7, PSMA3 and GAPDH, quantitative real time PCR (QRT-PCR) was performed using SYBR GREEN PCR Master Mix (Applied Biosystem), after optimization of the primer conditions. cDNAs were diluted 1:100 or 1:1000 and amplified in a 20 μL reaction. […] Real-time quantitative PCR was performed on ABI Prism 7300 Sequence Detection System (Applied Biosystems). Data were analyzed using the delta delta Ct method. […]

RRM1, p18CDKN2C = assay: RRM1 and p18CDKN2C expression (RT-qPCR, Western blot); details: H929 cells
Method: as §1, §2

hTERT = hTERT expression and telomerase activity (TeloTAGGG Telomerase PCR ELISA); details: MM.1S cells and H929 cells
Method: as §1
Telomerase activity in MM.1S and H929 cells was assessed by “TeloTAGGG Telomerase PCR ELISA®” from Roche Applied Science (Mannheim, Germany).

## CCc1cc(C(N)=O)ccc1-n1nc(C(C)C)c2c(-n3cnc(-c4cnn(C)c4)c3)ccnc21 [TAS-116]
p53
  p-p53 modulation on Akt inhibition: in neither case was p-p53 modulation observed

## O=C1CCC(N2C(=O)c3ccccc3C2=O)C(=O)N1 (stereo not drawn) [Thal, Thalidomide]
p53; 48 h
  downstream p-p53 level: not
TP53RK, CRBN; MM.1S cells, 48 h
  TP53RK level: not

## CC(C)C[C@H](NC(=O)[C@H](Cc1ccccc1)NC(=O)c1cnccn1)B(O)O [bortezomib]
MM cells; H929 cells, TP53RK siRNA then BTZ 3 nM 24 h, MTT
  cytotoxicity induced by bortezomib after TP53RK knockdown: further enhanced

B1: TP53RK siRNA: SMARTpool of J-003108-09, -10, -11, -12 siRNAs against TP53RK (Table 4) (nucleic acid)
guide 1: GGUAGAAGAAUGUGUAUGA
guide 2: GCUUCCAACUGCUUAUAUA
guide 3: GCUGAACAUUGUGCUCAUA
guide 4: GUACCCAUCCCAACACUGA
modifications: SMARTpool mixture, further chemistry not given here
proteasome
  PSMB5 PSMB7 and PSMA3 mRNA: downregulation
  chymotrypsin-like proteasome activity: significantly inhibited
  poly-ubiquitinated proteins: accumulation
  proteasome pathway (GSEA): downregulated
c-Myc, IKZF1/3
  IKZF1/3 expression after TP53RK knockdown: markedly downregulated
RRM1, p18CDKN2C
  RRM1 expression: downregulation
  p18CDKN2C expression: upregulation
MM cells; H929 cells, siRNA knockdown
  MM cell growth, viable cells by Trypan-blue: triggered MM cell growth inhibition
MM cells; MM.1S and H929 cells
  cell growth after knock-down: growth inhibition
TP53RK, CRBN; H929 cells (also MM.1S)
  CRBN expression after TP53RK knock-down: did not modulate; also recorded: not altered
TP53RK, CRBN; MM.1S and H929 cells
  TP53RK mRNA levels: markedly decreased
hTERT
  hTERT expression: downregulated

B2: CRBN siRNA: SMARTpool of J-021086-9 to -12 siRNAs against CRBN (nucleic acid)
guide 1: CAAUUAGAAUCCCUCAAUA
guide 2: GUAUAAGGCUUGCAACUUG
guide 3: GACAUUACCUCUUCAGCUU
guide 4: CGACUUCGCUGUGAAUUAG
modifications: SMARTpool mixture, further chemistry not given here
notes: SMARTpool of J-021086-9 to -12 siRNAs against CRBN
proteasome
  chymotrypsin-like proteasome activity: not
TP53RK, CRBN; H929 cells
  TP53RK expression after CRBN knockdown: did not change

— patent US10302644B2, “Compositions and methods for treating multiple myeloma” (Dana-Farber Cancer Institute, Inc., priority 2014, dated 2019)
